Publication PMC11087797 (2024)

B1: soluble CD94-NKG2C NK cell receptor ectodomains (receptor)
chain 1: KNSFTKLSIEPAFTPGPNIELQKDSDCCSCQEKWVGYRCNCYFISSEQKTWNESRHLCASQKSSLLQLQNTDELDFMSSSQQFYWIGLSYSEEHTAWLWENGSALSQYLFPSFETFNTKNCIAYNPNGNALDESCEDKNRYICKQQLI
chain 2: not shown
B2: soluble CD94-NKG2A NK cell receptor ectodomains (receptor)
chain 1: B1 chain 1
chain 2: not shown

Columns and labels:
Assay in all cases: SPR; peptide …
LA1(3-11)-HLA-E*01:03 = target: LA1(3-11)-HLA-E*01:03
LB7(3-11)-HLA-E*01:03 = target: LB7(3-11)-HLA-E*01:03
LA34(3-11)-HLA-E*01:03 = target: LA34(3-11)-HLA-E*01:03
LA80(3-11)-HLA-E*01:03 = target: LA80(3-11)-HLA-E*01:03
LCw3(3-11)-HLA-E*01:03 = target: LCw3(3-11)-HLA-E*01:03

Binder	Kd (LA1(3-11)-HLA-E*01:03) [µM]	Kd (LB7(3-11)-HLA-E*01:03) [µM]	Kd (LA34(3-11)-HLA-E*01:03) [µM]	Kd (LA80(3-11)-HLA-E*01:03) [µM]	Kd (LCw3(3-11)-HLA-E*01:03) [µM]
B1	11.3	25.5	13.5	42.8	22
B2	1.5	3.3	1.8	2.1	1.5
